± gives the standard deviation of the averaged measurements.

Data set [1] relates to MCF7. The data set is described as follows: percentage of EdU-negative (G0-arrested) nuclei per well, 72 h; higher = more G0 arrest. As to conditions: reference: sequence is the full UniProt precursor, the tested protein was the secreted form or ectodomain.
Data set [2] has as its system hTERT-HMEC. The description is as above. As to conditions: reference: sequence is the full UniProt precursor, the tested protein was the secreted form or ectodomain.
[3] abbreviates: protein concentration 0.0225 µM.
Setting [4] is: protein concentration 0.03125 µM.
Setting [5] is: protein concentration 0.3125 µM.
Setting [6] is: protein concentration 0.024875 µM.
Setting [7] is: protein concentration 0.24875 µM.
[8] abbreviates: protein concentration 0.0357143 µM.
Where [9] appears, read: protein concentration 0.357143 µM.
Setting [10] is: protein concentration 0.00825 µM.
[11] abbreviates: protein concentration 0.0825 µM.
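Note: secreted proteins added to cultured cells, EdU pulse at the end, nuclei found by Hoechst imaging, EdU status from nuclear versus surrounding ring intensity ratio, PBS as neutral control.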

Consider “MESSRVRLLPLLGAALLLMLPLLGTRAQEDAELQPRALDIYSAVDDASHEKELIEALQEVLKKLKSKRVPIYEKKYGQVPMCDAGEQCAVRKGARIGKLCDCPRGTSCNSFLLKCL”, for which the “percentage of EdU-negative” value in data set [1] (setting [3]) came to 28.1 ± 1.3%; in data set [1] (protein concentration 0.225 µM) it was 24.6 ± 0.93%; in data set [2] (setting [3]) it was 5.12 ± 0.53%; in data set [2] (protein concentration 0.225 µM), 5.36 ± 0.64%.
On to “MAGPLRAPLLLLAILAVALAVSPAAGSSPGKPPRLVGGPMDASVEEEGVRRALDFAVGEYNKASNDMYHSRALQVVRARKQIVAGVNYFLDVELGRTTCTKTQPNLDNCPFHDQPHLKRKAFCSFQIYAVPWQGTMTLSKSTCQDA”, for which the “percentage of EdU-negative” value in data set [1] (setting [4]) was 26.2 ± 1.3%; in data set [1] (setting [5]) it was 26.6 ± 2.9%; in data set [2] (setting [4]), 5.05 ± 0.076%; in data set [2] (setting [5]) it was 5.7 ± 0.21%.
With “MCRIAGALRTLLPLLAALLQASVEASGEIALCKTGFPEDVYSAVLSKDVHEGQPLLNVKFSNCNGKRKVQYESSEPADFKVDEDGMVYAVRSFPLSSEHAKFLIYAQDKETQEKWQVAVKLSLKPTLTEESVKESAEVEEIVFPRQFSKHSGHLQRQKRDWVIPPINLPENSRGPFPQELVRIRSDRDKNLSLRYSVTGPGADQPPTGIFIINPISGQLSVTKPLDREQIARFHLRAHAVDINGNQVENPIDIVINVIDMNDNRPEFLHQVWNGTVPEGSKPGTYVMTVTAIDADDPNALNGMLRYRIVSQAPSTPSPNMFTINNETGDIITVAAGLDREKVQQYTLIIQATDMEGNPTYGLSNTATAVITVTDVNDNPPEFTAMTFYGEVPENRVDIIVANLTVTDKDQPHTPAWNAVYRISGGDPTGRFAIQTDPNSNDGLVTVVKPIDFETNRMFVLTVAAENQVPLAKGIQHPPQSTATVSVTVIDVNENPYFAPNPKIIRQEEGLHAGTMLTTFTAQDPDRYMQQNIRYTKLSDPANWLKIDPVNGQITTIAVLDRESPNVKNNIYNATFLASDNGIPPMSGTGTLQIYLLDINDNAPQVLPQEAETCETPDPNSINITALDYDIDPNAGPFAFDLPLSPVTIKRNWTITRLNGDFAQLNLKIKFLEAGIYEVPIIITDSGNPPKSNISILRVKVCQCDSNGDCTDVDRIVGAGLGTGAIIAILLCIIILLILVLMFVVWMKRRDKERQAKQLLIDPEDDVRDNILKYDEEGGGEEDQDYDLSQLQQPDTVEPDAIKPVGIRRMDERPIHAEPQYPVRSAAPHPGDIGDFINEGLKAADNDPTAPPYDSLLVFDYEGSGSTAGSLSSLNSSSSGGEQDYDYLNDWGPRFKKLADMYGGGDD”, the “percentage of EdU-negative” value came out at 27 ± 2.4% in data set [1] (setting [6]), 28 ± 1.6% in data set [1] (setting [7]), 4.75 ± 0.064% in data set [2] (setting [6]) and 9.56 ± 1.9% in data set [2] (setting [7]).
For “MAAAWTVVLVTLVLGLAVAGPVPTSKPTTTGKGCHIGRFKSLSPQELASFKKARDALEESLKLKNWSCSSPVFPGNWDLRLLQVRERPVALEAELALTLKVLEAAAGPALEDVLDQPLHTLHHILSQLQACIQPQPTAGPRPRGRLHHWLHRLQEAPKKESAGCLEASVTFNLFRLLTRDLKYVADGNLCLRTSTHPEST [Q8IU54]”, the “percentage of EdU-negative” value in data set [1] (setting [8]) is 25.7 ± 0.7%; in data set [1] (setting [9]) it was 26.7 ± 1.7%; in data set [2] (setting [8]), 7.03 ± 0.88%; in data set [2] (setting [9]), 20.5 ± 5.7%.
Regarding “MVLLWLTLLLIALPCLLQTKEDPNPPITNLRMKAKAQQLTWDLNRNVTDIECVKDADYSMPAVNNSYCQFGAISLCEVTNYTVRVANPPFSTWILFPENSGKPWAGAENLTCWIHDVDFLSCSWAVGPGAPADVQYDLYLNVANRRQQYECLHYKTDAQGTRIGCRFDDISRLSSGSQSSHILVRGRSAAFGIPCTDKFVVFSQIEILTPPNMTAKCNKTHSFMHWKMRSHFNRKFRYELQIQKRMQPVITEQVRDRTSFQLLNPGTYTVQIRARERVYEFLSAWSTPQRFECDQEEGANTRAWRTSLLIALGTLLALVCVFVICRRYLVMQRLFPRIPHMKDPIGDSFQNDKLVVWEAGKAGLEECLVTEVQVVQKT”, the “percentage of EdU-negative” value in data set [1] (setting [4]) amounted to 26.3 ± 2.9%; in data set [1] (setting [5]), 30.4 ± 0.99%; in data set [2] (setting [4]), 4.403 ± 0.019%; in data set [2] (setting [5]) it was 5.4 ± 0.13%.
As to “MLVGQGAGPLGPAVVTAAVVLLLSGVGPAHGSEDIVVGCGGFVKSDVEINYSLIEIKLYTKHGTLKYQTDCAPNNGYFMIPLYDKGDFILKIEPPLGWSFEPTTVELHVDGVSDICTKGGDINFVFTGFSVNGKVLSKGQPLGPAGVQVSLRNTGTEAKIQSTVTQPGGKFAFFKVLPGDYEILATHPTWALKEASTTVRVTNSNANAASPLIVAGYNVSGSVRSDGEPMKGVKFLLFSSLVTKEDVLGCNVSPVPGFQPQDESLVYLCYTVSREDGSFSFYSLPSGGYTVIPFYRGERITFDVAPSRLDFTVEHDSLKIEPVFHVMGFSVTGRVLNGPEGDGVPEAVVTLNNQIKVKTKADGSFRLENITTGTYTIHAQKEHLYFETVTIKIAPNTPQLADIIATGFSVCGQISIIRFPDTVKQMNKYKVVLSSQDKDKSLVTVETDAHGSFCFKAKPGTYKVQVMVPEAETRAGLTLKPQTFPLTVTNRPMMDVAFVQFLASVSGKVSCLDTCGDLLVTLQSLSRQGEKRSLQLSGKVNAMTFTFDNVLPGKYKISIMHEDWCWKNKSLEVEVLEDDMSAVEFRQTGYMLRCSLSHAITLEFYQDGNGRENVGIYNLSKGVNRFCLSKPGVYKVTPRSCHRFEQAFYTYDTSSPSILTLTAIRHHVLGTITTDKMMDVTVTIKSSIDSEPALVLGPLKSVQELRREQQLAEIEARRQEREKNGNEEGEERMTKPPVQEMVDELQGPFSYDFSYWARSGEKITVTPSSKELLFYPPSMEAVVSGESCPGKLIEIHGKAGLFLEGQIHPELEGVEIVISEKGASSPLITVFTDDKGAYSVGPLHSDLEYTVTSQKEGYVLTAVEGTIGDFKAYALAGVSFEIKAEDDQPLPGVLLSLSGGLFRSNLLTQDNGILTFSNLSPGQYYFKPMMKEFRFEPSSQMIEVQEGQNLKITITGYRTAYSCYGTVSSLNGEPEQGVAMEAVGQNDCSIYGEDTVTDEEGKFRLRGLLPGCVYHVQLKAEGNDHIERALPHHRVIEVGNNDIDDVNIIVFRQINQFDLSGNVITSSEYLPTLWVKLYKSENLDNPIQTVSLGQSLFFHFPPLLRDGENYVVLLDSTLPRSQYDYILPQVSFTAVGYHKHITLIFNPTRKLPEQDIAQGSYIALPLTLLVLLAGYNHDKLIPLLLQLTSRLQGVRALGQAASDNSGPEDAKRQAKKQKTRRT”, the “percentage of EdU-negative” value was 22.7 ± 1.3% in data set [1] (setting [10]), 26.29 ± 0.074% in data set [1] (setting [11]), 5.23 ± 0.14% in data set [2] (setting [10]) and 7.14 ± 1.1% in data set [2] (setting [11]).
Regarding “MLLLGAVLLLLALPGHDQETTTQGPGVLLPLPKGACTGWMAGIPGHPGHNGAPGRDGRDGTPGEKGEKGDPGLIGPKGDIGETGVPGAEGPRGFPGIQGRKGEPGEGAYVYRSAFSVGLETYVTIPNMPIRFTKIFYNQQNHYDGSTGKFHCNIPGLYYFAYHITVYMKDVKVSLFKKDKAMLFTYDQYQENNVDQASGSVLLHLEVGDQVWLQVYGEGERNGLYADNDNDSTFTGFLLYHDTN”, the “percentage of EdU-negative” value is 26.2 ± 2.3% in data set [1] (setting [4]), 25.6 ± 1.1% in data set [1] (setting [5]), 5.07 ± 0.4% in data set [2] (setting [4]) and 5.02 ± 0.22% in data set [2] (setting [5]).

The values above are taken from the supplement of paper PMC11316812.
